Measurements taken from IntAct's records for PubMed 30458687.

What was measured:
apoa1_human APOA1 [1] = molecular target: apoa1_human APOA1 (UniProt P02647)
apoa1_human APOA1 [2] = molecular target: apoa1_human APOA1 (UniProt P02647); remark: listed apart in the source

apoa1_human APOA1, sequence (P02647 whole entry): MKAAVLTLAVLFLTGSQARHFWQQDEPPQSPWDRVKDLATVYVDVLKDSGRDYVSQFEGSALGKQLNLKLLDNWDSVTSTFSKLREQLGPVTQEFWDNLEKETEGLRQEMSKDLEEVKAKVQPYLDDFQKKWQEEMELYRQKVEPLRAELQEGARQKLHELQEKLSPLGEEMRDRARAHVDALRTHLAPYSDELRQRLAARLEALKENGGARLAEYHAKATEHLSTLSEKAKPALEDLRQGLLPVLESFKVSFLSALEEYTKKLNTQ

Substance: Phospholipid-transporting ATPase ABCA1 (Homo sapiens), O95477 K939M;K1952M
- effect of a mutation on the interaction (apoa1_human APOA1 [1]): disrupting interaction strength
- effect of a mutation on the interaction (apoa1_human APOA1 [2]): disrupting interaction strength
